The target in assay [1] is T1, human 5T4-His protein (human, UniProt Q13641 32-355).
T1 construct: also called recombinant 5T4 protein (human 5T4-his tag); human 5T4 protein; not shown: His tag
T1 sequence (looked up): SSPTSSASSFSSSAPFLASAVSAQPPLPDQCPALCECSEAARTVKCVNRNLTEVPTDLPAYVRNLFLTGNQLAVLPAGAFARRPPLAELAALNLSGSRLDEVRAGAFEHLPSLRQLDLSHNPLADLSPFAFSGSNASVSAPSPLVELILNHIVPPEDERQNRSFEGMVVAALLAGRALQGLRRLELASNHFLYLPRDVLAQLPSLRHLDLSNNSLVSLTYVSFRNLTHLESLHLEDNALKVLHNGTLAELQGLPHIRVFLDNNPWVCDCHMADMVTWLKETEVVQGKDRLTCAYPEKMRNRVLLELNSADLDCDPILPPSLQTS
Kind of assay: competitive ELISA, coated human 5T4, vs naptumomab-biotin. Background: ELISA stands for enzyme-linked immunosorbent assay.

Assay [2] deals with T1, human 5T4-His protein. The description is as above. The source holds these as a separate data set.
Assay [3] has as its target T2, human 5T4 expressed on cells (human, UniProt Q13641 32-420).
T2 construct: whole, on cells; also called CHOK1-hu5T4; CHO-K1-expressing human 5T4
T2 sequence (looked up): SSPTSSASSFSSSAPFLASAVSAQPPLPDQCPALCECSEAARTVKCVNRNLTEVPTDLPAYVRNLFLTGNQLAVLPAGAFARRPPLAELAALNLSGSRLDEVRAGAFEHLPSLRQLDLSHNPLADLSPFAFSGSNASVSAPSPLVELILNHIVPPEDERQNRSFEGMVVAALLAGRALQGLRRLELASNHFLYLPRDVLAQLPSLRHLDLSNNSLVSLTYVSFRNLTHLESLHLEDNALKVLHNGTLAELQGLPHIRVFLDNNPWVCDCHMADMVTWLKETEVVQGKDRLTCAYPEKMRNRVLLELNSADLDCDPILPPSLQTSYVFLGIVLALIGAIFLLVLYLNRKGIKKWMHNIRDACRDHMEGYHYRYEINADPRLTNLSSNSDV
Kind of assay: flow cytometry, CHOK1-hu5T4 cells.

In assay [4] the target is T1, human 5T4-His protein. Kind of assay: ELISA, coated human 5T4-His.
Assay [5] deals with T1, human 5T4-His protein. Put plainly: competitive ELISA, coated human 5T4, vs naptumomab-biotin. The source holds these as a separate data set.
Assay [6] deals with T1, human 5T4-His protein. Put plainly: ELISA, coated human 5T4-His. The source holds these as a separate data set.
In assay [7] the target is T2, human 5T4 expressed on cells. Put plainly: flow cytometry, HEK293-hu5T4 cells. (Flow cytometry measures light scatter and fluorescence of single cells or particles in a stream.)
The target is the same in assay [8]. Kind of assay: flow cytometry, CHOK1-hu5T4 cells. The source holds these as a separate data set.
In assay [9] the target is T1, human 5T4-His protein. Kind of assay: competitive ELISA, coated human 5T4, vs naptumomab-biotin. This is another data set of the same source.
In assay [10] the target is T2, human 5T4 expressed on cells. Kind of assay: flow cytometry, HEK293-hu5T4 cells. As to the method: (§1) To evaluate the binding property of affinity maturated antibodies to surface 5T4, tested antibodies were analyzed for their binding to CHOK1-hu5T4, HEK293-hu5T4 or MCF-7 cells by FACS. […] After wash by FACS buffer, PE conjugated-anti-human IgG antibody was added to each well and incubated at 4° C. for 30 minutes. MFI of PE was evaluated by MACSQuant Analyzer 16.
The source holds these as a separate data set.

The target of assay [11] is T1, human 5T4-His protein. Kind of assay: ELISA, coated human 5T4-His. As to the method: (§2) Briefly, microtiter plates were coated with human 5T4-His protein at 2 μg/ml in PBS, 30 μl/well at 4° C. overnight, then blocked with 5% PBS/Milk. Serial dilutions of antibodies were added to each well and incubated for 1 hour at room temperature. The plates were washed with PBS/Tween and then incubated with Goat Anti-Human IgG-HRP for 50 mins at room temperature. After washing, the plates were developed with TMB substrate and analyzed by spectrophotometer at OD 450 nm.
The source holds these as a separate data set.

Assay [12] addresses T1, human 5T4-His protein. Put plainly: ELISA, coated 5T4-His. As to the method: To evaluate the binding activity of 14G12 humanized antibodies to human 5T4, the 14G12 chimeric antibody along with 14G12 humanized mAbs were subjected to ELISA test.
Briefly, microtiter plates were coated with human 5T4-His protein at 1 μg/ml in PBS, 100 μl/well at 4° C. overnight, then blocked with […]. Serial dilutions of antibodies were added to each well and incubated for 1 hour at 37° C. The plates were washed with PBS/Tween and then incubated with Goat Anti-Human IgG-HRP for 30 mins at 37° C. After washing, the plates were developed with TMB substrate and analyzed by spectrophotometer at OD 450 nm. As shown in FIG. 10 and Table 6, most of the humanized antibodies bound to human 5T4 at high activity.

The target of assay [13] is T1, human 5T4-His protein. Put plainly: SPR Biacore, Protein A capture. On the procedure: The binding of the 14G12 humanized antibodies to recombinant 5T4 protein (human 5T4-his tag) was tested with Biacore using a capture method. The mAbs were captured using Protein A chip. Serial dilution of human 5T4-his tag protein was injected over captured antibody for 120 s-180 s at a flow rate of 30 μl/min. The antigen was allowed to dissociate for 360 s-1000 s. All the experiments were carried out on a Biacore T200. Data analysis was carried out using the Biacore T200 evaluation software.
For orientation: SPR reads the build-up and loss of mass on a sensor chip optically.

Assay [14] concerns the target T2, human 5T4 expressed on cells. Put plainly: flow cytometry, HEK293-hu5T4 cells. As to the method: as §1
The source holds these as a separate data set.

Assay [15] shares this target. Kind of assay: flow cytometry, MCF-7 cells. On the procedure: as §1
Assay [16] concerns the target T1, human 5T4-His protein. Put plainly: ELISA, coated human 5T4-His. On the procedure:
as §2
This is another data set of the same source.

For assay [17], the target named is T1, human 5T4-His protein. Put plainly: SPR Biacore, Protein A capture. On the procedure: The binding affinity of tested antibodies against recombinant 5T4 protein (human 5T4-his tag) was tested with Biacore using a capture method. The antibodies were captured using Protein A chip. A serial dilution of human 5T4-his tag protein was injected over captured antibody for 3 mins at a flow rate of 30 μl/min. The antigen was allowed to dissociate for 300 s. All the experiments were carried out on a Biacore T200. Data analysis was carried out using Biacore T200 evaluation software.
The source holds these as a separate data set.

Assay [18] deals with T2, human 5T4 expressed on cells. Kind of assay: flow cytometry, CHOK1-hu5T4 cells. On the procedure: as §1
The source holds these as a separate data set.

Assay [19] has the same target. Put plainly: flow cytometry, CHOK1-hu5T4 cells. As to the method:
as §1
The source holds these as a separate data set.

Assay [20] deals with T1, human 5T4-His protein. Put plainly: SPR Biacore, Protein A capture. This is another data set of the same source.

Positions count from the first letter of the chain named. Like-named read-outs stand apart in the source and are kept apart here.

What is called EC50 (read off the curve) is the concentration needed to bring the measured effect to its halfway point. Low readings indicate higher potency in that assay, high ones lower potency in that assay. As to “naptumomab (antibody portion of naptumomab (NeoTX) that targets 5T4)”, the IC50 (read off the curve) was 5 nM in the assay with human 5T4-His protein [1], 6 nM with human 5T4-His protein [2], 3 nM with human 5T4-His protein [5] and 4 nM with human 5T4-His protein [9]. Besides, the EC50 (read off the curve) in assay [3] amounted to 1 nM; in the assay with human 5T4-His protein [4], 0.2 nM; with human 5T4-His protein [6], 0.1 nM; in assay [7], 2 nM; in [8] it was 2 nM.

B1: Hu14G12-28 (antibody, V domains shown)
VH: QVQLVQSGAEVKKPGASVKVSCKASGYAFSSSWMNWVRQAPGQGLEWMGRIYREDGHTNYNGKFKGRVTMTADKSITTAYMELSRLRSDDTAVYYCANGGAMDYWGQGTLVTVSS
VL: DIQMTQSPSSLSASVGDRVTITCRASQDISNYLNWYQQKPGKAPKLLIYYTSRLHSGVPSRFSGSGSGTDYTFTISSLQPEDIATYFCQQDNTLPWTFGGGTKVEIK
notes: humanized; also called parental Hu14G12-28 antibody
In general, EC50 refers to the midpoint of the concentration-response curve. Low values mean greater potency, high ones weaker potency. What is called Kd is the concentration at which binding is half-saturated. The low end stands for higher affinity, the high end for lower affinity. A word on the koff: it is a measure of how fast the partners let go of each other. Low readings indicate slow dissociation, high ones fast dissociation. For orientation: kon means the rate constant with which the complex forms. With B1, the “EC50 (read off the curve)” value in [10] was about 2 nM; with human 5T4-His protein [11], about 0.2 nM; in [14] it was about 2 nM; in [15] it was about 0.2 nM; with human 5T4-His protein [16], about 0.1 nM; in [18], about 1 nM. The “EC50 (read off the curve)” value in [19] was about 2 nM. This molecule also registered a 50% effective concentration (EC50) in the assay with human 5T4-His protein [12] of 0.01 µg/mL. Besides, the Kd is 2.42 nM with human 5T4-His protein [13] and 4.09 nM with human 5T4-His protein [17]. The koff with human 5T4-His protein [13] was 0.000714 s⁻¹; with human 5T4-His protein [17], 0.000738 s⁻¹. The on-rate constant (kon) in the assay with human 5T4-His protein [13] was 295000 M⁻¹ s⁻¹; with human 5T4-His protein [17] it was 180000 M⁻¹ s⁻¹.

B2: Hu14G12-28-108# (antibody, V domains shown)
VH: B1 VH
VL: B1 VL with Q89A, Q90N
As for B2, the “EC50 (read off the curve)” value in [10] was about 2 nM; in [15], about 0.3 nM; in the assay with human 5T4-His protein [16], about 0.1 nM; in assay [18], about 1 nM. For the same molecule, in the assay with human 5T4-His protein [20], the “fold increase of binding affinity against the parental Hu14G12-28” value came to 7.41 fold. In the assay with human 5T4-His protein [17], this molecule yielded a Kd of 0.552 nM. Further, the koff in the assay with human 5T4-His protein [17] worked out at 0.000101 s⁻¹. In the assay with human 5T4-His protein [17], this molecule showed a kon of 183000 M⁻¹ s⁻¹.

B3: Hu14G12-28-88# (antibody, V domains shown)
VH: B1 VH
VL: B1 VL with Q89G, Q90N
Take B3: the “EC50 (read off the curve)” value is about 0.2 nM with human 5T4-His protein [11], about 2 nM in assay [14], about 0.3 nM in [15] and about 2 nM in assay [19]. Also, the “fold increase of binding affinity against the parental Hu14G12-28” value with human 5T4-His protein [20] stood at 9.45 fold. For the same molecule, the affinity with human 5T4-His protein [17], expressed as Kd, was 0.433 nM. Further, the koff with human 5T4-His protein [17] was 8.28e-05 s⁻¹. In the assay with human 5T4-His protein [17], this molecule gave a kon of 191000 M⁻¹ s⁻¹.

These data come from patent US20250154277A1 (CONCEPT TO MEDICINE BIOTECH, published 2025).
